pKd: −log10 of the molar value.
How the values were obtained:
HLA-B*15:01 = test: IEDB peptide-MHC binding, purified MHC/direct/fluorescence; filed as Kd, often an IC50 or EC50 that approximates it; ≥ and ≤ were set here for values at or beyond the usual limits of such assays; settings: source organism: Cryptosporidium parvum
HLA-A*11:01 = test: as above; settings: source organism: Cryptosporidium parvum
HLA-B*73:01 = test: as above
HLA-A*26:03 = test: as above; settings: source organism: Cryptosporidium parvum Iowa II
HLA-A*01:01 = test: as above; settings: source organism: Cryptosporidium parvum
HLA-A*03:01 = test: as above; settings: source organism: Cryptosporidium parvum
HLA-B*08:03 = test: as above; settings: source organism: Cryptosporidium parvum Iowa II
HLA-A*68:02 = test: as above; settings: source organism: Cryptosporidium parvum
HLA-B*08:02 = test: as above; settings: source organism: Cryptosporidium parvum Iowa II
HLA-B*48:01 = test: as above; settings: source organism: Cryptosporidium parvum
HLA-B*18:01 = test: as above; settings: source organism: Cryptosporidium parvum
HLA-B*27:05 = test: as above; settings: source organism: Cryptosporidium parvum
HLA-B*57:01 = test: as above; settings: source organism: Cryptosporidium parvum
HLA-B*15:09 = test: as above; settings: source organism: Cryptosporidium parvum Iowa II
HLA-A*69:01 = test: as above; settings: source organism: Cryptosporidium parvum
HLA-B*07:02 = test: as above; settings: source organism: Cryptosporidium parvum
HLA-A*02:01 = test: as above; settings: source organism: Cryptosporidium parvum
HLA-A*26:01 = test: as above; settings: source organism: Cryptosporidium parvum Iowa II
HLA-B*27:02 = test: as above; settings: source organism: Cryptosporidium parvum Iowa II
HLA-A*31:01 = test: as above; settings: source organism: Cryptosporidium parvum
HLA-B*58:01 = test: as above; settings: source organism: Cryptosporidium parvum
HLA-B*39:01 = test: IEDB peptide-MHC binding, purified MHC/competitive/fluorescence; filed as Kd, often an IC50 or EC50 that approximates it; ≥ and ≤ were set here for values at or beyond the usual limits of such assays; settings: source organism: Cryptosporidium parvum Iowa II
HLA-A*26:02 = test: as above; settings: source organism: Cryptosporidium parvum Iowa II
HLA-B*15:17 = test: as above; settings: source organism: Cryptosporidium parvum Iowa II
HLA-C*06:02 = test: IEDB peptide-MHC binding, purified MHC/direct/fluorescence; filed as Kd, often an IC50 or EC50 that approximates it; ≥ and ≤ were set here for values at or beyond the usual limits of such assays; settings: source organism: Escherichia coli K-12
HLA-B*83:01 = test: IEDB peptide-MHC binding, purified MHC/competitive/fluorescence; filed as Kd, often an IC50 or EC50 that approximates it; ≥ and ≤ were set here for values at or beyond the usual limits of such assays; settings: source organism: Escherichia coli K-12
HLA-B*45:06 = test: as above; settings: source organism: Escherichia coli K-12
HLA-B*40:13 = test: as above; settings: source organism: Escherichia coli K-12
HLA-A*32:07 = test: as above; settings: source organism: Escherichia coli K-12
HLA-B*27:20 = test: as above; settings: source organism: Escherichia coli K-12
HLA-B*15:42 = test: as above; settings: source organism: Escherichia coli K-12

Sequence: RKWGLDFCY
- pKd (HLA-B*15:01): 5.68
- pKd (HLA-A*11:01): ≤ 4.70
- pKd (HLA-B*73:01; source organism: Cryptosporidium parvum): ≤ 4.70
- pKd (HLA-A*26:03): ≤ 4.70
- pKd (HLA-A*01:01): ≤ 4.70
- pKd (HLA-A*03:01): ≤ 4.70
- pKd (HLA-B*08:03): ≤ 4.70
- pKd (HLA-A*68:02): ≤ 4.70
- pKd (HLA-B*08:02): ≤ 4.70
- pKd (HLA-B*48:01): ≤ 4.70
- pKd (HLA-B*18:01): ≤ 4.70
- pKd (HLA-B*27:05): 7.26
- pKd (HLA-B*57:01): ≤ 4.70
- pKd (HLA-B*15:09): ≤ 4.70
- pKd (HLA-A*69:01): ≤ 4.70
- pKd (HLA-B*07:02): 5.05
- pKd (HLA-A*02:01): ≤ 4.70
- pKd (HLA-A*26:01): ≤ 4.70
- pKd (HLA-B*27:02): 5.15
- pKd (HLA-A*31:01): ≤ 4.70
- pKd (HLA-B*58:01): ≤ 4.70
- pKd (HLA-B*39:01): ≤ 4.70
- pKd (HLA-A*26:02): ≤ 4.70
- pKd (HLA-B*15:17): ≤ 4.70

Sequence: RQWGMGFLL
- pKd (HLA-C*06:02): 5.77
- pKd (HLA-B*73:01; source organism: Escherichia coli O157:H7): 5.22
- pKd (HLA-B*83:01): ≤ 5.30
- pKd (HLA-B*45:06): ≤ 5.30
- pKd (HLA-B*40:13): ≥ 9.00
- pKd (HLA-A*32:07): 8.92
- pKd (HLA-B*27:20): ≥ 10.00
- pKd (HLA-B*15:42): ≤ 5.30
